Consider 29 sequences from the supplement of paper PMC10201428.

± gives the standard deviation of the averaged measurements.

The subject of data set [1] is VchCAST RNA-guided transposition machinery (E. coli BL21(DE3) host, lacZ target). The experiment in a line: relative integration efficiency (T-LR orientation) vs wild-type transposon end (log2 (normalized fold change)); transposon end mutated: left end; higher = more efficient transposition. A digest of the protocol:
(§1)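 Barcode abundances in input plasmids and in genomic integration junctions were obtained by PCR amplification and Illumina sequencing. These came from E. coli BL21(DE3) co-transformed with a T7-driven effector plasmid and a pUC57 donor carrying 1549 left-end or 1849 right-end transposon variants, then plated with 0.1 mM IPTG at 37°C for 18 h. Relative integration efficiency is the output/input fold change, normalised to reference barcodes and log-transformed.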

Data set [2] shares this test system. Briefly: relative integration efficiency (T-RL orientation) vs wild-type transposon end (log2 (normalized fold change)); transposon end mutated: left end; higher = more efficient transposition. In outline: as §1

In the case of “AATGTTGTTGATGCAACCATAAAGTGATATTTAATACAACCATATATTGATATCTCATTATTTATAATCAGCAACTTAACCACAAAAACAAAACAACCATAAGTTGATATTTTTGTGAATCGAGTATTTCAGCAAAACTACTGCAGTAAGAA”, the “relative integration efficiency (log2)” value in data set [1] is -3.41 ± 3.5; in data set [2], -4.61 ± 1.8.
The matching figures for “AATGTTGTTGATGCAACCATAAAGTGATATTTAATACGGCGGGCGCCGACTACCAGGCCAACACCCCACCAACGCGCGGTCGCGAGACACCCCACCAACGCCTGGTCGCGGGGGTGTCCGATCTGATTTCAGCAAAACTACTGCAGTAAGAA”: -4.75 ± 2 and -6.9 ± 1.3.
For “AATGTTGTTGATGCAACCATAAAGTGATATTTAATAGTACTGCGCGACTGAAATCATCATTAAAACGCAACCATATATTGATATCTCACAAAACAACCATAAGTTGATATTTTTGTGAATCGAGTATTTCAGCAAAACTACTGCAGTAAGAA” the same measures were -3.4 ± 1.6 and -4.94 ± 0.88.
The matching figures for “AATGTTGTTGATGCAACCATAAAGTGATATTTAATCAACCATAAAGTGATATTTAACTTAACCACAACAACCATATATTGATATCTCACAAAACAACCATAAGTTGATATTTTTGTGAATCGAGTATTTCAGCAAAACTACTGCAGTAAGAA”: -0.257 ± 1.2 and -4.54 ± 1.2.
On to “AATGTTGTTGATGCAACCATAAAGTGATATTTAATCAACCATATATTGATATCTCAATTATTTATAATCAGCAACTTAACCACAAAAACAAAACAACCATAAGTTGATATTTTTGTGAATCGAGTATTTCAGCAAAACTACTGCAGTAAGAA”, for which the “relative integration efficiency (log2)” value was -0.334 ± 1.6 in data set [1] and -2.99 ± 0.87 in data set [2].
For “AATGTTGTTGATGCAACCATAAAGTGATATTTAATCAACCATATATTGATATCTCACAAAACAACCATAAGTTGATATTTTTGTGAATCGAGTATTTCAGCAAAACTACTGCAGTAAGAAAGTTACTTCGTGGTATGGGAGGATCAAGGAGC” the same measures were -0.405 ± 1 and -3.38 ± 1.4.
For “AATGTTGTTGATGCAACCATAAAGTGATATTTAATCCGGCGGGCGCCGACTACCAGGCCAACACCCCACCAACGCGCGGTCGCGAGACACCCCACCAACGCCTGGTCGCGGGGGTGTCCGATCTGATTTCAGCAAAACTACTGCAGTAAGAA”, the “relative integration efficiency (log2)” value in data set [1] is -4.25 ± 1; in data set [2], -6.75 ± 1.3.
Consider “AATGTTGTTGATGCAACCATAAAGTGATATTTACAACCATAAAGTGATATTTAACTTAACCACAAAACAACCATATATTGATATCTCACAAAACAACCATAAGTTGATATTTTTGTGAATCGAGTATTTCAGCAAAACTACTGCAGTAAGAA”, for which the figures for the “relative integration efficiency (log2)” value in data set [1] and in data set [2] were 1.11 ± 0.91 and -3.13 ± 0.76, respectively.
For “AATGTTGTTGATGCAACCATAAAGTGATATTTACAACCATATATTGATATCTCACAAAACAACCATAAGTTGATATTTTATAATTATTTATAATCAGCAACTTAACCACAAAATGTGAATCGAGTATTTCAGCAAAACTACTGCAGTAAGAA” the same measures were 0.848 ± 1 and -1.4 ± 0.65.
The matching figures for “AATGTTGTTGATGCAACCATAAAGTGATATTTACAACCATATATTGATATCTCACAAAACAACCATAAGTTGATATTTTTGTGAATCGAGTATTTCAGCAAAACTACTGCAGTAAGAAAGTTACTTCGTGGTATGGGAGGATCAAGGAGCCA”: 0.662 ± 0.89 and -2.61 ± 1.1.
The matching figures for “AATGTTGTTGATGCAACCATAAAGTGATATTTACAACCATATATTGATATCTCACAAACAACCATAAGTTGATATTTTTGTGAATCGAGTATTTCAGCAAAACTACTGCAGTAAGAAAGTTACTTCGTGGTATGGGAGGATCAAGGAGCCAA”: 2.04 ± 0.88 and -2 ± 0.74.
With “AATGTTGTTGATGCAACCATAAAGTGATATTTACAACCATATATTGATATCTCACAACAACCATAAGTTGATATTTTTGTGAATCGAGTATTTCAGCAAAACTACTGCAGTAAGAAAGTTACTTCGTGGTATGGGAGGATCAAGGAGCCAAT”, the “relative integration efficiency (log2)” value is 2.75 ± 0.92 in data set [1] and -2.68 ± 0.7 in data set [2].
Regarding “AATGTTGTTGATGCAACCATAAAGTGATATTTACAACCATATATTGATATCTCACACAACCATAAGTTGATATTTTTGTGAATCGAGTATTTCAGCAAAACTACTGCAGTAAGAAAGTTACTTCGTGGTATGGGAGGATCAAGGAGCCAATA”, the “relative integration efficiency (log2)” value in data set [1] is 3.33 ± 0.87; in data set [2], -2.53 ± 0.78.
The matching figures for “AATGTTGTTGATGCAACCATAAAGTGATATTTACAACCATATATTGATATCTCATAATTATTTATAATCAGCAACTTAACCACAAAAACAAAACAACCATAAGTTGATATTTTTGTGAATCGAGTATTTCAGCAAAACTACTGCAGTAAGAA”: -0.75 ± 1.4 and -1.85 ± 0.76.
In the case of “AATGTTGTTGATGCAACCATAAAGTGATATTTACAACCATATATTGATATCTCTCACAACCATAAGTTGATATTTCTCTGATCATAGTCAGACCAACATTGCTACGACCCGTATTCGCACCGACACTGTGAATCGAGTATTTCAGCAAAACT”, the “relative integration efficiency (log2)” value in data set [1] was 2.61 ± 1.1; in data set [2], -2.28 ± 0.64.
Consider “AATGTTGTTGATGCAACCATAAAGTGATATTTACAACCATATATTGATATCTCTCACAACCATAAGTTGATATTTTTGTGAATCGAGTATTTCAGCAAAACTACTGCAGTAAGAAAGTTACTTCGTGGTATGGGAGGATCAAGGAGCCAATA”, for which the “relative integration efficiency (log2)” value was 3.04 ± 0.96 in data set [1] and -2.79 ± 0.97 in data set [2].
The matching figures for “AATGTTGTTGATGCAACCATAAAGTGATATTTACACGAAGTGGCAACTGCCGTGCTGGCGTGCGATGCAACCATATATTGATATCTCACAAAACAACCATAAGTTGATATTTTTGTGAATCGAGTATTTCAGCAAAACTACTGCAGTAAGAA”: 0.496 ± 0.1 and -2.73 ± 0.84.
For “AATGTTGTTGATGCAACCATAAAGTGATATTTACCGACTGCCTGCCATCCGCCGCCGCACCGCAGCCCAACCATATATTGATATCTCACAAAACAACCATAAGTTGATATTTTTGTGAATCGAGTATTTCAGCAAAACTACTGCAGTAAGAA” the same measures were -3.03 ± 1.2 and -2.99 ± 0.89.
For “AATGTTGTTGATGCAACCATAAAGTGATATTTACCGACTGTCTGCCATCAGCCGCTTAACCGCAGCCCAACCATATATTGATATCTCACAAAACAACCATAAGTTGATATTTTTGTGAATCGAGTATTTCAGCAAAACTACTGCAGTAAGAA” the same measures were -3.56 ± 0.14 and -3.07 ± 0.93.
Take “AATGTTGTTGATGCAACCATAAAGTGATATTTACCGACTGTCTGCCATCCGCCGCTGAACCGCAGCCCAACCATATATTGATATCTCACAAAACAACCATAAGTTGATATTTTTGTGAATCGAGTATTTCAGCAAAACTACTGCAGTAAGAA”: the “relative integration efficiency (log2)” value in data set [1] is -3.04 ± 1.6; in data set [2], -2.98 ± 0.99.
On to “AATGTTGTTGATGCAACCATAAAGTGATATTTACCGACTGTCTGCCATCCGCCGCTGCACCGCAGCCCAACCATATATTGATATCTCACAAAACAACCATAAGTTGATATTTTTGTGAATCGAGTATTTCAGCAAAACTACTGCAGTAAGAA”, for which the entries for the “relative integration efficiency (log2)” value in data set [1] and in data set [2] were -2.44 ± 0.78 and -3.24 ± 1, respectively.
For “AATGTTGTTGATGCAACCATAAAGTGATATTTACGAATCAATTAAAATCATAGGCTTAATCGAAAAACAACCATATATTGATATCTCATAAAACAACCATAAGTTGATATTTTGGTGAAAAGGATATTCCAACCTTCATAGTTTAGTAAGAA” the same measures were 0.612 ± 0.84 and 0.639 ± 0.032.
The matching figures for “AATGTTGTTGATGCAACCATAAAGTGATATTTACGAGCCGAGCTCGTGCCCGGTGCCGCGGCAGACGCAACCATATATTGATATCTCACAAAACAACCATAAGTTGATATTTTTGTGAATCGAGTATTTCAGCAAAACTACTGCAGTAAGAA”: -2.47 ± 1.1 and -2.33 ± 0.72.
The matching figures for “AATGTTGTTGATGCAACCATAAAGTGATATTTACGCACTCCGTAGCCATCTGGGGCACCGGACGCTCCAACCATATATTGATATCTCACAAAACAACCATAAGTTGATATTTTTGTGAATCGAGTATTTCAGCAAAACTACTGCAGTAAGAA”: -3.42 ± 0.88 and -2.64 ± 0.79.
For “AATGTTGTTGATGCAACCATAAAGTGATATTTACGCCGGCGGGCGCCGACTACCAGGCCAACACCCCACCAACGCGCGGTCGCGAGACACCCCACCAACGCCTGGTCGCGGGGGTGTCCGATCTGATTTCAGCAAAACTACTGCAGTAAGAA”, the “relative integration efficiency (log2)” value in data set [1] is -6.15 ± 3.6; in data set [2], -6.9 ± 0.36.
The matching figures for “AATGTTGTTGATGCAACCATAAAGTGATATTTACGCCGGCGGGCGCCGACTACCAGGCCAACACCCCCAACCATATATTGATATCTCACAAAACAACCATAAGTTGATATTTTTGTGAATCGAGTATTTCAGCAAAACTACTGCAGTAAGAA”: -2.85 ± 1.2 and -3.42 ± 1.2.
“AATGTTGTTGATGCAACCATAAAGTGATATTTACGTCTGTACAGCGCACAGAAGCTGGGAACTCGGCCAACCATATATTGATATCTCACAAAACAACCATAAGTTGATATTTTTGTGAATCGAGTATTTCAGCAAAACTACTGCAGTAAGAA”: the “relative integration efficiency (log2)” value in data set [1] was -3.36 ± 2.2; in data set [2] it was -3.56 ± 1.1.
For “AATGTTGTTGATGCAACCATAAAGTGATATTTACTAGGATTCATGTCAACGTGCAAGCTTAGTTCGACAACCATATATTGATATCTCACAAAACAACCATAAGTTGATATTTTTGTGAATCGAGTATTTCAGCAAAACTACTGCAGTAAGAA” the same measures were -5.46 ± 2.5 and -5.16 ± 1.
For “AATGTTGTTGATGCAACCATAAAGTGATATTTACTTAAGCGAGTCTGTCCTTTCTGACTGTCGATCCCAACCATATATTGATATCTCACAAAACAACCATAAGTTGATATTTTTGTGAATCGAGTATTTCAGCAAAACTACTGCAGTAAGAA” the same measures were -3.45 ± 1.6 and -3.4 ± 1.1.
